For test [1], the target named is T1, rat/human hybrid NPY Y5 receptor (rat/human chimera).
T1 chain: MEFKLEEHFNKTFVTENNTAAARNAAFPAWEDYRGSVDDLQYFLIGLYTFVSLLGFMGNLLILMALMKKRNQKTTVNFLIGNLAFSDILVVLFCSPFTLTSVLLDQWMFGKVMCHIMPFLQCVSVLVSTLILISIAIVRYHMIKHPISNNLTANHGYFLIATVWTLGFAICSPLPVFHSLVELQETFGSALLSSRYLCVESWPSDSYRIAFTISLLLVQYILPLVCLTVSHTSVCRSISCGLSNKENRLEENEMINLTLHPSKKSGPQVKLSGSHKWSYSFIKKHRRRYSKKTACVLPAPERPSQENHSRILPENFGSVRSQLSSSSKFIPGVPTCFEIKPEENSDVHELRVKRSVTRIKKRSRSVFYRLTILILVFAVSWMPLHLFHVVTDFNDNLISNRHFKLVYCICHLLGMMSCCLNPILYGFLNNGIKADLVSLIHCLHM
Kind of test: competition with 0.1 nM [125I]PYY, membranes of COS1 cells transiently expressing the receptor.
Procedure: (§1) PYY and 2.5–5 ug of membrane protein (50 ul final volume). […] PYY and various concentrations of competing peptides (200 ul final volume). […] Binding assays were incubated at room temperature for 90 minutes and were terminated by rapid vacuum filtration through glass fiber filters in 96-well format (Multiscreen FB Filter Plates, Millipore, Bedford, Mass. or Unifilter-96 GF/C, Packard, Meriden, Conn.) Prior to filtration the glass fiber filters were pretreated with 100 ul of 0.3 % polyethylenimine. Each filter was then washed 3 times with 100 ul of PBS. Radioactivity trapped on the filters was then counted by standard gamma counting techniques.
(§2) Peptide affinities were measured in competition binding assays with membranes from COS1 cells transiently expressing the human Y_5 and rat/human hybrid Y_5 receptors.

The target of test [2] is T1, rat/human hybrid NPY Y5 receptor. Nature of the test: radioligand binding at 100 pM [125I]PYY, membranes of COS1 cells transiently expressing the construct.
Procedure: as §1
(§3) All receptors were expressed transiently in COS1 cells.
The target of test [3] is T2, human NPY Y5 receptor (human, UniProt Q15761). The description is as above.
Procedure: as §1, §3
Test [4] has as its target rat NPY Y5 receptor expressed from pCR3.1-rY5A (rat, UniProt Q63634). The test is described as above.
Procedure: as §1, §3
Test [5] deals with T2, human NPY Y5 receptor. Kind of test: competition with 0.1 nM [125I]PYY, membranes of COS1 cells transiently expressing the receptor.
Procedure: as §1, §2

Turning to APLEPVYPGDNATPEQMAQYAADLRRYINMLTRPRY (ligand) [Human PP], in test [1], the Ki (commonly the equilibrium dissociation constant of an inhibitor or competing ligand from its target) amounted to 2.86 nM.

B1: [125I] porcine peptide YY (ligand)
peptide: not shown
modifications: 125I label
On to B1, for which the “Level of Expression (fmol/mg protein), radioligand bound at 100 pM” value was 298 fmol/mg protein in test [2], 103 fmol/mg protein with human NPY Y5 receptor [3] and 100 fmol/mg protein in test [4].
For the molecule APLEPMYPGDYATHEQRAQYETQLRRYINTLTRPRY (ligand) [Rat PP], the results for the Ki (in test [1]; in the test with human NPY Y5 receptor [5]) were 75.6 nM and 60 nM, respectively.

Source of the values: patent US5985616, “Chimeric mammalian NPY Y5 receptors” (Schering Corporation, dated 1999).
